Test: soluble on expression in E. coli; label from the status in PepcDB or PDB records

Row | Sequence | soluble on expression in E. coli
1 | GSGSAMIEARQVSELSTRIISSVQMLSNAQNEQERKEAGRVLFEQLESLLTHIKELGGESFDSKLLDALESNVQNVINNLAELGVTVERKLWLAKEIDTRVEEMRLLSEELEQLTRTQVQNTSTIAVANVTHIYDLLEANKKDQVYQALDALVEVDLDLTERLHELHLLAFKMLNQIEEARTLTNVDRIQQIQTAFENNLKIMKRRVLAVEDPTRSKQMSQLLTELGKRQVVFTILLQQYENNEQSQQLMQKTLELFSELNSTVNKLVDDSNKTTT | soluble
2 | MGSDKIHHHHHHMKLQDFLGKDEKWSFDAIAEDADLARQIQIVLIGLVLLEPPADGKFGPVSVIALKKFQELTKTEESGFLGAVTAKKLIETKIDDLPKPPLKLGNDIASKIVKYMIAKGYQVFTNPKEYNIVYIEGMNGDWTLNSDTPNQFNDRRIVIEVVNGIPKIVDHWEATTEPGKYYTYNPMNPKGAARIQFGQYKAWAVGTHGTAEPHEALVQVGDITVCRDFNQDFKRTGDKLDTGDNFYVNQHYGFDFPQNDIRLASAGCLVGRTREGHREFMAIVKQDRRYVANRKYTFYTTVIPGDDLLKTFPG | not soluble
3 | MSLSSAYQLVIFDWEGTIADTLGVILHTVATEAKMLGFGDIDPYQARKYVDLGLVQAVKKTLPNLTAGQQEDLLQAVQSAMISRPTEVRLIPGVLEFIQQLHQAKVDLAIATNKGHNSLIRALQATELDQLFKVTRSAGQVPAKPCPQMLEEIMEEFGRDPSSTLMIGDSTTDMEMAKRINVNAIGMDFYHQQEDALKAAGALAVFDDYKLLSAYLMLPEAEGHHHHHH | soluble
4 | QVPENNGYAGDKPLKTYIHDTVKGDLYYTAGSSYYSGKAYPGDTYKVNHNFDLPEGATIKLARLYNYWTWSSEGMEGRNPEMKLSFDGQELEPDREYSDRKGWGSYDYPSGTWAYDVSSCITGSGTFTTEIENTGPDASCVCIEGVGLLIVYEDPDGRNIEYWINEGADELNSQMDENGSPLYYTAPNQTICEMLRPALQFPIRSATLWTITQSGNWENNTLIVNDKKFTGICDGKPYPDLEIDKRNVTDCLKAGENIILFQASGDYVISSGSFLVVEKDLLAEESKSSTEEASEKSEETGSTPETSGTESKKAPGFGFVFAPALLTGRKLVSGLRDK | not soluble
5 | MGSDAFDEMDEIWALYADDGAQALDAMEASLLALQAGEDAAAHVGPLFRAVHTFKGNSRVLGLSVVESRAHLCEDLIGLVRDAGVPMDGEIVEILLFASDTLRAMLEETAASRADVEGTGSEALMDQLRSKIARCSRSHHHHHH | soluble
6 | MVTTLTPVICESAPAAAASYSHAMKVNNLIFLSGQIPVTPDNKLVEGSIADKAEQVIQNIKNVLEASNSSLDRVVKVNIFLADINHFAEFNSVYAKYFNTHKPARSCVAVAALPLGVDMEMEAIAAERD | soluble
7 | MIKISTRFDAGSVVVKDLTDPSNIRLALRPDNASDFAQWFYFRLQGAAYQNCIMHFENAAEAAYPKGWEGYQACASYDRRNWFRVPTSYENGVLTVNHTPLSNSVYYAYFEPYSEEQHLNLLGDAQGSGLCRIDDLGSTVQGRDINLLTIGNQVESDLKIWITARQHPGETMAEWFIEGLLGRLLDPQDPTARALLDRATFYIVPNMNPDGSALGNLRTNAAGANLNREWENPTVEKSPEVFFVREKMLETGVDLFLDIHGDEGLPFVFVAGTEGVPNYNPRIAALEAQFKNALLNASPDFQDEYGYEKDAPGEANMTLATNWVGNRFNCLAYTLEMPFKDNANLPDDDFGWNGQRSLRLGEAALSAILNVIGDLR | not soluble
8 | HQIGEDTYIVQGTMTLNDFNNYFDVELESDDVDTIAGYYLTGVGTIPTTEKLSYELVSQNKQFILTNDKVKNGRVTKVKVQITEVEIEEETE | not soluble
9 | ELPDFFQGKHFFLYGEFPGDERRKLIRYVTAFNGELEDYMSDRVQFVITAQEWDPSFEEALMDNPSLAFVRPRWIYSCNEKQKLLPHQLYGVVPQA | soluble
10 | GSHMHAKVGDYLVVKGTTTERHDQHAEIIEVRSADGSPPYVVRWLVNGHETTVYPGSDAVVVTATEHAEAEKRAAARAGHAAT | soluble
11 | MSLTTRVIALDLDGTLLTPKKTLLPSSIEALARAREAGYQLIIVTGRHHVAIHPFYQALALDTPAICCNGTYLYDYHAKTVLEADPMPVNKALQLIEMLNEHHIHGLMYVDDAMVYEHPTGHVIRTSNWAQTLPPEQRPTFTQVASLAETTQQVNAVWKFALTHDDLPQLQHFGKHVEHELGLECEWSWHDQVDIAHGGNSKGKRLTKWVEAQGWSMENVVAFGDNFNDISMLEAAGTGVAMGNADDAVKARANIVIGDNTTDSIAQFIYSHLIEGHHHHHH | not soluble
12 | MGSDKIHHHHHHMLHRTCIQFHKFGNPKDVLQVEYKNIEPLKENEVLVRMLVRPINPSDLIPITGAYAHRIPLPNIPGYEGVGIVEDVGAFVSRDLIGKRVLPLRGEGTWQEYVKTSPDFVVPIPDSINDFTAAQMYINPLTAWVTCTETLNLQRNDVLLVNACGSAIGHLFAQLSQILNFRLIAVTRNNKHTEELLRLGAAYVIDTSTAPLYETVMTLTNGIGADAAIDSIGGPDGNELAFSLRPNGHFLTIGLLSGVQVNWAEIVTKAKVHANIFHLRHWNKEASSYKWQETFRHLIRLVENEQLRFMKVHSTYDLADVKAAVDVVQSAEKTKG | not soluble
13 | MSLRAGTEETERGHTALTVEGIGRRRGSEERETPERGDKEEGKEQVKRETAGGTRSSSPQKQRGKSTTRRLSVAGLSSERTQSNFEIHRELEDQTDDAMSGAGGIDCSMSGTTATVVLHIHALKKLFVAHVGDSRAVIARREHASSRAVAGGSDGFRQETRNDSRMLQQQTSSEPRETAEDRGCRSAGTGTDCRPLSRLMAFDLTNDHKPTNEIEKQRIMKAGGQVRRLEGDVPHRVFLKNRLFPGLAMSRAIGDTIATQAGVIPDPEVRGYQQSQSDEGHHHHHH | soluble
14 | DRRFQETLDKIRKEEGYDFAAIAFYESNKPSSPIKWHYVSGNKNNRFKLIILRKGRGLAGTVMKTGKRMVIANVGLALGPEEKIDYPILLSESLTAVLAVPLWYKNQVYGVLLFGQRDGRPLPKIFDNDDIQ | not soluble
15 | SKTNHIVIIGYSRIGKCVALSLINRGDPVVIVEESKRLTDKAIADGFEVICGNIIKQDVMNAANMSNAYKVVITMCNTIEVGECIVNIRDMNKDIQIITHTLSDVDTAYLIDLGADIVVTDEEEIANGVIEHITGQRFIKNIAQS | soluble
16 | MSLTDVEEQQLTVLKDPNCGCCEKWLQALPDSFSVSVQHPNNLTQRKRDSGISAEVQSCHTAISSNGYVFEGHVPPTLVSHYLAGKKSENGIGLTVPGMPVGSVGMEMGTRFQPYTVYEIKKDGSITPYQQIASLEQQQALSNEGLEGHHHHHH | soluble
17 | MRILILGMGGTIASVKGERGYESALSVSKILKLAGISSEAKIEARDLMNVDSTLIQPSDWERLAKEIEKEVWEYDGIVITHGTDTMAYSASMLSFMLRNPPIPIVLTGSMLPITEKNSDAPFNLRTALEFVKLGIRGIYIAFNGKVMLGVRASKIRSMGFDAFESINYPNVAEIKDDKLRILHIPDFYGDEFFSDIKYEPKVLVIKLIPGLSGDIVREALRLGYKGIILEGYGVGGIPYRGTDLFEVVSSISKRIPVVLTTQAIYDGVDLQRYKVGRIALEAGVIPAGDMTKEATITKLMWILGHTKNIEEVKQLMGKNITGELTRVS | soluble
18 | MGSDKIHHHHHHMFGFRLSGGKGILQRSQVALVVMESTGGLEIPAAKAIRRAGIAVIIANPRQTHQFAQLQPLTKTDAKDAKMPAFFAQMTAQKEDSQTMPYQPPTEAEEVLEALVNRRNQSADMRTAEKNRLHQVHETQVGSVKQLIAHFDRLIDELDKQIDDHTHTHFDGKAQVAEQIKGIGSITTATLMAMLPELGRLSHKRIASLAGIAPHPRESEETKFKSRCFGGRSAVRKALYMATVAATRFEPLIRDFYQRLLSKGKPYKVAVTACMRKLLTISNTRMRDYFAENDTAENGIRTA | not soluble
19 | GPLGSEEEQFALALKMSEQEAREVNNQEEKEEELLRKAIAESLNS | soluble
20 | MGSDKIHHHHHHMRASVLSDWLAQRLDRGNGQPIYRQLHRLLQQAILTRELPPGSKVPSSRLLAQELGIGRNTVTQVYEQLVLEGYVSSATGRGTFVADSAPDEIVGVPDAAAPDTSAESSPQQAKRALSTRGARLIAGAGVSKRQWGAFMPGVPDVTKFPARVWSRLHNKYWRRLRPDLLTYAPGGGLASLRHALADYLRTSRSVRCTPEQIIITTGIHQSVDLAVRLLSDPGDVIWTEDPCYWGVRSVLHVSGLQSRPIAVDEEGINPSADDLAQPPKLMLVTPSHQYPLGMVMSLARRRMLLEYARQNQCWIIEDDYDSEYRYGSRPLASLQGLDTSGQVIYVGSFGKTLFPGLRIGYLVVPEALAESFATASAELYREGQLLQQAMLAEFIAEGHFTSHIRRMRTLYGQRRQTLLDAAAHRYGDALPAVGGDAGLHLVMQLPEGSDDRQVAATALERNIVVRPLSGYYAQPSLAPSGLLIGYACVPDEEIAPAFNTLADAIDVTLPEFA | not soluble
21 | MHSFPPLLLLLFWGVVSHSFPATLETQEQDVDLVQKYLEKYYNLKNDGRQVEKRRNSGPVVEKLKQMQEFFGLKVTGKPDAETLKVMKQPRCGVPDVAQFVLTEGNPRWEQTHLTYRIENYTPDLPRADVDHAIEKAFQLWSNVTPLTFTKVSEGQADIMISFVRGDHRDNSPFDGPGGNLAHAFQPGPGIGGDAHFDEDERWTNNFREYNLHRVAAHELGHSLGLSHSTDIGALMYPSYTFSGDVQLAQDDIDGIQAIYGRSQNPVQPIGPQTPKACDSKLTFDAITTIRGEVMFFKDRFYMRTNPFYPEVELNFISVFWPQLPNGLEAAYEFADRDEVRFFKGNKYWAVQGQNVLHGYPKDIYSSFGFPRTVKHIDAALSEENTGKTYFFVANKYWRYDEYKRSMDPGYPKMIAHDFPGIGHKVDAVFMKDGFFYFFHGTRQYKFDPKTKRILTLQKANSWFNCRKN | soluble
22 | MSKLPEIGTKISLTDKAYEIIKDAIMTNIFKPGELLIEEKLAEQLAISRTPLRAALRKLAYDHLVEINSSRNVIVANIGQKDVEEITVVREVLEPLAVKELENNIGEDELKKLEEILCRQKKAVLEDNYEELIKMEYEFHVAIGELTHNKWLHGMLKDINTIVQRYLILSGSLNKYKEVAIKEHEVIISEIRQGNYDKAVESMKCHISNVSSRMLK | not soluble
23 | MSLGTGRNGGRAIVATGLGQCCWDTLAVVDSYPSPDSKAEAAVWAEQAGGPTATALVALARLGIPCRFAGVVGDDDAGSRIRQALDSEGVDGAFLVTRRRGASQRAFIMIERGSGRRTIVWRRPTGDPLDPREVPDAFLAGSSLLLLDGLMADASLHAAGRARSLGIPVMVDAGRMRPGMLDITRQCDYVVAAEQFFLDLGWDRTPEHFRGLAADLGAPVVTVTLGAAGSLTWSGHEPFHVPAFTVDAVDTTGAGDVFHGGYGYGILQGWSVRETVVFASAMAAMKCRQVGAQQGIPRLPDVLEFLTRRTITVLSNPQTEGHHHHHH | soluble
24 | MYAKSLNGDAFSNEAKQKAIELIKQDLGQIDLVVYSLASPVRKMPDTGELVRSALKPIGETYTSTAVDTNKDVIIEASVEPATEQEIADTVTVMGGQDWELWIQALEEAGVLAEGCKTVAYSYIGTELTWPIYWDGALGRAKMDLDRAATALNEKLAAKGGTANVAVLKSVVTQASSAIPVMPLYIAMVFKKMREQGVHEGCMEQIYRMFSQRLYKEDGSAPEVDDHNRLRLDDWELRDDIQQHCRDLWPQITTENLRELTDYDMYKEEFIKLFGFGIEGIDYDADVNPEVEFDVIDIE | not soluble
25 | MLSEWQNHKAQLRNYVYKRVDDASAVDDILQDVYIKASSNLHQLKSKGSLKGWLYKIAYNTIMDFYRDKLPYDELPEDLVAEDEDAVEESRKEIAECMRPLIDELPDKYSVPLRLAELDGIPQQEIADKLGLSLSGAKSRIQRGRVKFRENLMTCCDFEINDGGMVTGYTPKKTNCSSPKR | not soluble
